Laboratory results reported in patent publication US9340616B2, “Methods and compositions for heptameric targeting ligands” (The University of North Carolina at Chapel Hill, priority 2011, dated 2016).

B1: PSMA-Heptamer: AF-Sm1 heptamerization domain fused with the 12 amino-acid PSMA-binding peptide WQPDTAHHWATL, self-assembled heptamer (protein)
chain: MWQPDTAHHWATLGPQPQPKPQPKPEPEPQPQGGMPPRPLDVLNRSLKSPVIVRLKGGREFRGTLDGYDIHMNLVLLDAEEIQNGEVVRKVGSVVIRGDTVVFVSPAPGGEHHHHHH
B2: PSMA monomer: PSMA-binding peptide WQPDTAHHWATL on a truncated, nonfunctional Sm1 domain lacking the C-terminal 23 residues (protein)
chain: MWQPDTAHHWATLGPQPQPKPQPKPEPEPQPQGGMPPRPLDVLNRSLKSPVIVRLKGGREFRGTLDGYDIHMNLVLLDAEEIQNGEVVHHHHHH

Biological target: T1, PSMA (Homo sapiens, UniProt Q04609)
T1 construct: the extracellular domains of EGFR, HER2, and PSMA that are immobilized on the surface of CM5 biosensor chips; purchased R&D System, Minneapolis, Minn
Assay: BIAcore surface plasmon resonance on immobilized PSMA
Format: binding
Conditions: for binding to the PSMA receptor: PSMA monomer injected at 100 uM
Description: BIAcore 2000 (BIAcore AB, Uppsala, Sweden) was used for surface plasmon resonance (SPR) analysis. Purified extracellular domain of recombinant human EGFR ECD-Fc, HER2 ECD-Fc, and PSMA were diluted in 10 mM sodium acetate pH 5.0 and immobilized on a CM5 sensor chip (GE healthcare) by amine coupling according to the manufacturer's instruction (about 2,500 resonance unit). Various concentrations of monomeric and heptameric targeting ligands were injected onto the flow cell in an HBS-P buffer (10 mM HEPES pH7.4, 150 mM NaCl, and 0.005% surfactant P20) at a flow rate of 20 μl/min or 30 μl/min. The dissociation constants (Kd) were calculated using BIAevaluation software (BIAcore) by fitting data on one to one Langmuir binding model.
The BIAcore 2000 (BIAcore AB, Uppsala, Sweden) was used for surface plasmon resonance analysis. 1 μg of purified extracellular domain of recombinant human EGFR ECD-Fc, HER2 ECD-Fc, or PSMA (R&D System, Minneapolis, Minn.), was diluted in a buffer containing 10 mM sodium acetate pH 5.0 and immobilized on a CM5 sensor chip (GE healthcare, Piscataway, N.J.) by amine coupling according to the manufacturer's instruction (about 2,500 resonance units). Various concentrations of monomeric or heptameric ligands were injected onto the flow cell in an HBS-P buffer (10 mM HEPES pH 7.4, 150 mM NaCl, and 0.005% surfactant P20) at a flow rate of 20 μl/min. The dissociation equilibrium constant (KD), the association rate (Ka) and the dissociation rate (Kd) were calculated using the BIAevaluation software (BIAcore) by fitting the data on a one to one Langmuir binding model.

T1 sequence (Q04609 44-750 limits assumed): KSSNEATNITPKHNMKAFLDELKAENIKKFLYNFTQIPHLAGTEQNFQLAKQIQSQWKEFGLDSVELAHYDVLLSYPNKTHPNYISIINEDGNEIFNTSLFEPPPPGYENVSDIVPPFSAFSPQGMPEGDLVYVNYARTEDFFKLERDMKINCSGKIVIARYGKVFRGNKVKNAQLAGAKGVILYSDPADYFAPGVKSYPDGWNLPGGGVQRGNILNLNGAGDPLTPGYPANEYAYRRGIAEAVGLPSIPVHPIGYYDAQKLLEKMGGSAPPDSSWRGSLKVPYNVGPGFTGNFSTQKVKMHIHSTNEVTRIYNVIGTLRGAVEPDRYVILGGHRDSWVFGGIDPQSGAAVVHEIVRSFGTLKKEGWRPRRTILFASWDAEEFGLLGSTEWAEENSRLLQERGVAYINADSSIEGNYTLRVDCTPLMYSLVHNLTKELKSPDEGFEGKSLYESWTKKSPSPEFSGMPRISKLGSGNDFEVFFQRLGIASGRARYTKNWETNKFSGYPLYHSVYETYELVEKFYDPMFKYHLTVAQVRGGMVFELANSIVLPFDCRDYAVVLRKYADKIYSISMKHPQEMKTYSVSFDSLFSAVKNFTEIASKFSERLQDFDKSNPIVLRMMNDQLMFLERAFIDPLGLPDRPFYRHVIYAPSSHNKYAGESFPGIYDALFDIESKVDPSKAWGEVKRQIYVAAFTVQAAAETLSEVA

Row | Molecule | binding to the PSMA receptor | Kd (dissociation rate, one to one Langmuir model) [s⁻¹]
1 | B1 | bind marginally | 1.09e-06
2 | B2 | did not bind | –
